Legend:
Type in all cases: cell-based
[1] = test system: pHrodo-red labeled, dexamethasone treated thymocytes; test: Luminal degradation of engulfed thymocytes in CER-transduced Ba/F3 cells (time-lapse imaging); details: FACS purified after overnight co-culture
Procedure: Luminal degradation in CER-transduced cells was also evaluated following engulfment. Ba/F3 cells transduced with CER21 or CER116 were co-cultured with pHrodo-red labeled, dexamethasone treated thymocytes overnight and subsequently purified by FACS. Target cell destruction was visualized by time-lapse imaging and quantified over time (FIG. 85F). […] CER116-harboring Ba/F3 cells (top) catabolize target cells, allowing cells to return to homeostasis and resume immune responsiveness. The addition of a TRAF6 signaling domain to the CER construct promotes rapid destruction of engulfed material.

[2] = test system: H1703 non-small cell lung cancer cells; test: Killing of paclitaxel treated H1703 cells by CER21+ human primary B cells; details: Paclitaxel 30 μM, target:effector 5:1, 3 hours, vs EGFRt B cells
Procedure: Human primary B cells were transduced with pLenti Tim4-TLR8 (CER21) lentivirus expressing truncated EGFR as a transduction marker and stained with CELLTRACE Violet as described in Example 1. One day prior to setting up a co-culture assay, H1703 non-small cell lung cancer cells were incubated with phosphatidylserine inducing chemotherapy Paclitaxel (30 μM) in serum-free media for 24 hours. Floating and adherent H1703 cells were collected, centrifuged, incubated with pHrodo red (1 ng/μL) for 15 minutes at room temperature in PBS, washed, and then plated in a non-adherent 96 well plate. Human CER21+ B cells and H1703 cells were co-cultured at a target cell to effector cell ratio of 5:1 at 37° C. for 3 hours. B cells transduced with truncated EGFR were used as control. The plate was then imaged using a 20X objective, Keyence BZ-X710 microscope (FIG. 21). Cells undergoing apoptosis show increasing Red fluorescence as the intracellular pH drops in the earliest stages of apoptosis (FIG. 21, top row). Adjacent cells not induced by Paclitaxel treatment remain only dimly fluorescent. Apoptotic measurements in the presence of CER21+ B cells were quantified as the Area under the Curve of red fluorescent objects and outlined in blue using automated software (FIG. 21, bottom row; FIG. 22), for each high powered field. White arrows show apoptosis events.

[3] = test system: dexamethasone pre-treated thymocytes; test: Phagocytosis of thymocytes by CER Ba/F3 cells in presence or absence of Racl inhibitor; details: Ba/F3 cells, 6 hour co-culture

B1: CER21: Tim4 binding and transmembrane domains, TLR8 signaling domain; SEQ ID NO:88 (protein)
chain: MSKGLLLLWLVTELWWLYLTPAASEDTIIGFLGQPVTLPCHYLSWSQSRNSMCWGKGSCPNSKCNAELLRTDGTRIISRKSTKYTLLGKVQFGEVSLTISNTNRGDSGVYCCRIEVPGWFNDVKKNVRLELRRATTTKKPTTTTRPTTTPYVTTTTPELLPTTVMTTSVLPTTTPPQTLATTAFSTAVTTCPSTTPGSFSQETTKGSAFTTESETLPASNHSQRSMMTISTDIAVLRPTGSNPGILPSTSQLTTQKTTLTTSESLQKTTKSHQINSRQTILIIACCVGFVLMVLLFLAFLHHLFYWDVWFIYNVCLAKVKGYRSLSTSQTFYDAYISYDTKDASVTDWVINELRYHLEESRDKNVLLCLEERDWDPGLAIIDNLMQSINQSKKTVFVLTKKYAKSWNFKTAFYLALQRLMDENMDVIIFILLEPVLQHSQYLRLRQRICKSSILQWPDNPKAEGLFWQTLRNVVLTENDSRYNNMYVDSIKQY
modifications: CER21 chimeric engulfment receptor
- luminal content degradation over time [1]: broken down over-time
- killing of paclitaxel treated H1703 cells (apoptotic object area) [2]: enhance killing of target cells at sub-therapeutic dose of chemotherapy
- pHrodo+ signal (phagocytosis of thymocytes), FACS [3]: considerable pHrodo+ signal indicating phagocytosis of target thymocytes

Reference: US11708423B2, “Chimeric engulfment receptor molecules and methods of use” (CERO THERAPEUTICS, INC., priority 2017, dated 2023)
